B1: 1G04 (chimeric ONA-0-v1 IgG1 LALA antibody) (antibody)
heavy: not shown
light: SIVMTQTPKFLLVSAGDRITITCKASQSVSDDVAWYQQKPGQSPKLLIYYASNRYTGVPDRFTGSGYGTDFTFTISTVQAEDLAVYFCQQDYSSPLTFGAGTKLEIKRTVAAPSVFIFPPSDEQLKSGTASVVCLLNNFYPREAKVQWKVDNALQSGNSQESVTEQDSKDSTYSLSSTLTLSKADYEKHKVYACEVTHQGLSSPVTKSFNRGEC
notes: Human IgG1 with the LALA alteration, human kappa light chain; also called 1G04 (IgG1)
B2: 1G06 antibody (chimeric ONA-0-v1 IgG1) (antibody)
heavy: QVQLKQSGADLVRPGASVKLSCKASGYTFTDYYINWVKQRPGQGLEWIARIYPGSGNTYYNEKFKGKATLTAEKSSSTAYMQLSSLTSEDSAVYFCARGIGGGFGMDYWGQGTSVTVSSASTKGPSVFPLAPSSKSTSGGTAALGCLVKDYFPEPVTVSWNSGALTSGVHTFPAVLQSSGLYSLSSVVTVPSSSLGTQTYICNVNHKPSNTKVDKKVEPKSCDKTHTCPPCPAPESTRGPSVFLFPPKPKDTLMISRTPEVTCVVVDVSHEDPEVKFNWYVDGVEVHNAKTKPREEQYNSTYRVVSVLTVLHQDWLNGKEYKCKVSNKALPAPIEKTISKAKGQPREPQVYTLPPSRDELTKNQVSLTCLVKGFYPSDIAVEWESNGQPENNYKTTPPVLDSDGSFFLYSKLTVDKSRWQQGNVFSCSVMHEALHNHYTQKSLSLSPGK
light: SIVMTQTPKFLLVSAGDRITITCKASQSVSDDVAWYQQKPGQSPKLLIYYASNRYTGVPDRFTGSGYGTDFTFTISTVQAEDLAVYFCQQDYSSPLTFGAGTKLEIKRTVAAPSVFIFPPSDEQLKSGTASVVCLLNNFYPREAKVQWKVDNALQSGNSQESVTEQDSKDSTYSLSSTLTLSKADYEKHKVYACEVTHQGLSSPVTKSFNRGEC
B3: ONA-0-v1 anti-CD36 antibody (murine IgA) (antibody)
heavy: QVQLKQSGADLVRPGASVKLSCKASGYTFTDYYINWVKQRPGQGLEWIARIYPGSGNTYYNEKFKGKATLTAEKSSSTAYMQLSSLTSEDSAVYFCARGIGGGFGMDYWGQGTSVTVSSESARNPTIYPLTLPPVLCSDPVIIGCLIHDYFPFGTMNVTWGKSGKDITTVNFPPALASGGRYTMSSQLTLPAVECPEGESVKCSVQHDSNPVQELDVNCSPTPPPPITIPSCQPSLSLQRPALEDLLLGSDASITCTLNGLRNPEGAAFTWEPSTGKDAVQKKAAQNSCGCYSVSSVLPGCAERWNSGASFKCTVTHPESGTLTGTIAKVTVNTFPPQVHLLPPPSEELALNELLSLTCLVRAFNPKEVLVRWLHGNEELSPESYLVFEPLKEPGEGATTYLVTSVLRVSAETWKQGDQYSCMVGHEALPMNFTQKTIDRLSGKPTNVSVSVIMSEGDGICY
light: SIVMTQTPKFLLVSAGDRITITCKASQSVSDDVAWYQQKPGQSPKLLIYYASNRYTGVPDRFTGSGYGTDFTFTISTVQAEDLAVYFCQQDYSSPLTFGAGTKLEIKRADAAPTVSIFPPSSEQLTSGGASVVCFLNNFYPKDINVKWKIDGSERQNGVLNSWTDQDSKDSTYSMSSTLTLTKDEYERHNSYTCEATHKTSTSPIVKSFNRNEC
notes: mouse IgA constant region; produced in HEK 293 cells; also called ONA-0-v1 (IgA); ONA-O-v1 (IgA)

Key:
[1] = biological target: T1, human CD36 recombinant protein (Sino Biological, reference 10752-H08H) (human, UniProt P16671 30-439); assay: SPR Biacore T200, antibody captured on protein A, CD36 analyte, 2-state model
T1 construct: Bought recombinant protein
T1 sequence (P16671 30-439 limits assumed): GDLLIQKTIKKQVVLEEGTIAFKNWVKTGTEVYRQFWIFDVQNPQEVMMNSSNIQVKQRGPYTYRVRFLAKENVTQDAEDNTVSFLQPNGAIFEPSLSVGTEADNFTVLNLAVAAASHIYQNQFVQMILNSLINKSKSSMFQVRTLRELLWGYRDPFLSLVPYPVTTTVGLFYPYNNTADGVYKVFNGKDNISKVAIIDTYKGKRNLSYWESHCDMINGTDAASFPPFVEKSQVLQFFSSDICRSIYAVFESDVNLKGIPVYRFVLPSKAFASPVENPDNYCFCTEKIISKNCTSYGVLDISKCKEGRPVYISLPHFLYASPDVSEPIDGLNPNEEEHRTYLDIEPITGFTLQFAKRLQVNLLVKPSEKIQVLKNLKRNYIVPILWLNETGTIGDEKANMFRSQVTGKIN
Description: (§1) The affinity of ONA-0-v1, 1G04, and a commercial anti-CD36 antibody (JC63.1) for human CD36 was also measured by surface plasmon resonance (SPR) using a Biacore T200. 1G04 was analysed using a protein A capture surface, with a capture range of 100-150 RU and an antigen titration range of 3.3-333 nM. The mouse antibodies ONA-0-V1 and the commercial anti-CD36 antibody were analysed using an anti-mouse IgA capture surface, with a capture range of 160-180 RU and an antigen titration range of 3.3-333 nM. For each single analysis cycle a titration of five antigen concentrations were injected over the captured antibody and then the dissociation of the complex was measured. A double referencing method was employed in which data from the reference surfaces where no antibody was captured (fc 1 and 3 respectively) were subtracted from the antibody bound capture surface (fc 2 and 4). Blank injections of buffer were run for every antigen titration cycle and then subtracted from analyte injection cycles, to correct for small changes in the antibody capture surface density. All analysis was performed at 25° C., and the sample rack was kept at 6° C. during experimental runs. Each experiment was run at least three times with the mean binding constants generated from at least two independent assays reported. All analysis was performed in PBS-T running buffer at 40 μL/min.

[2] = biological target: T2, human CD36 on cells overexpressing human CD36 (human, UniProt P16671 2-472); assay: FACS on cells overexpressing human CD36, % of Binding
T2 sequence (P16671 2-472 limits assumed): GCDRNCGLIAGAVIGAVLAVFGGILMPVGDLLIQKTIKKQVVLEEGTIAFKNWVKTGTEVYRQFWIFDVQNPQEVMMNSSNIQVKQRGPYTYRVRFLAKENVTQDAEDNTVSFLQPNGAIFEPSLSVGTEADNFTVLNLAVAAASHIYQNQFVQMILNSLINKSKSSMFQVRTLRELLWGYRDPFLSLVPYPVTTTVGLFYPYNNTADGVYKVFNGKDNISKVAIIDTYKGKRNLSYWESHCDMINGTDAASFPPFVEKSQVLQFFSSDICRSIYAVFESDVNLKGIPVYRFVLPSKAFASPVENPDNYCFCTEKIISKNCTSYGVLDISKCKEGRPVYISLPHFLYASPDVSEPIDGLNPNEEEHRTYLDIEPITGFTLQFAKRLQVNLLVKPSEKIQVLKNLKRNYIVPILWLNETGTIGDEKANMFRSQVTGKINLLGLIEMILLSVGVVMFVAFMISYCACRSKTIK
Description: For FACS analysis, cells were trypsinized, collected in a 15 mL tube and diluted in washing buffer (2% FBS in PBS). Cells were then centrifuged at 1500 rpm for 5 min at 4° C., supernatant was discarded, and cells were resuspended in fresh washing buffer. Anti-CD36 antibodies were either omitted (control wash buffer treatment) or serially diluted in washing buffer (dilution range up to 100 nM), and then added to the cells. Incubation was performed on ice for 1 hour. Cells were then centrifuged at 1500 rpm for 5 min at 4° C., supernatant was discarded, and cells were resuspended in fresh washing buffer. Finally, cells were incubated with a […] (BV421 Rat Anti-Mouse IgA, Becton Dickinson, reference 743293) diluted 1:100 in washing buffer, washed and analysed by FACS.

[3] = biological target: T2, human CD36 on cells overexpressing …; assay: FACS on cells overexpressing human CD36, MFI
[4] = biological target: T1, human CD36 recombinant protein (Sino …); assay: ELISA, plate coated with human CD36, OD630nm
Description: (§2) To perform ELISA assays, 96-well ELISA plates were coated over night with human CD36 (Sino Biological, reference 10752-H08H) or mouse CD36 (Sino Biological, reference 50422-M08H) recombinant proteins at a concentration of 0.25 mg/ml. After two washes with PBS, plates were blocked with 4% skimmed milk in PBS for 1 hour at 37° C. Blocking solution was discarded and plates were washed five times with 200 μl/well PBS-Tween20 (0.5%). Primary antibodies were either omitted (control blocking solution treatment) or mixed in blocking solution at several dilutions ranging from 0.01 nM to 0.5 μM. The primary antibody solutions were added to the wells and incubated over night at 4° C. After 5 washes with 200 ul/well of PBS-Tween20 (0.5%), plates were incubated for 1 hour at room temperature with a goat anti-mouse HRP-conjugated antibody (Abeam, reference ab97235) diluted 1:2000 in blocking solution. Plates were then washed 5 times with 200 μl/well of PBS-Tween20 (0.5%), incubated with 100 μl/well TMB and detected after 10 minutes, 30 minutes, or 60 minutes with a spectrophotometer at a wave length of 630 nm.

[5] = biological target: T3, mouse CD36 recombinant protein (Sino Biological, reference 50422-M08H) (mouse, UniProt Q08857 30-439); assay: ELISA, plate coated with mouse CD36, OD630, panel 'Coating: mouse CD36'; Kd printed beside the 1G04 curve
T3 construct: Bought recombinant protein; also called murine CD36
T3 sequence (Q08857 30-439 limits assumed, stated change not applied): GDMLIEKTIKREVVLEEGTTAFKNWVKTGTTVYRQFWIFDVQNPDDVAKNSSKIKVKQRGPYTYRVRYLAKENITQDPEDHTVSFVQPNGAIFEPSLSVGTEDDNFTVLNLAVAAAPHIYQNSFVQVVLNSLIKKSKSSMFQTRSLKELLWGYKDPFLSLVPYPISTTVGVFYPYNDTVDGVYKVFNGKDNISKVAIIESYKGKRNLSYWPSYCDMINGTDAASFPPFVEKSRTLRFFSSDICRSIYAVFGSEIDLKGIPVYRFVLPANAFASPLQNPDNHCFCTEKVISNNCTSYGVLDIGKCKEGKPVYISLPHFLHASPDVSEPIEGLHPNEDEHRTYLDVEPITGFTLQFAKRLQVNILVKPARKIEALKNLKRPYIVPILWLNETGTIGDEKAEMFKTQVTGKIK
Description: as §2

[6] = biological target: T1, human CD36 recombinant protein (Sino …); assay: SPR Biacore T200, antibody captured on protein A, CD36 analyte 3.3-333 nM, 1-to-1 model
Description: as §1

[7] = biological target: T1, human CD36 recombinant protein (Sino …); assay: ELISA, plate coated with human CD36, OD630, panel 'Coating: human CD36'; Kd printed beside the 1G04 curve
Description: as §2

[8] = biological target: T2, human CD36 on cells overexpressing …; assay: FACS on cells overexpressing human CD36, GeoMFI against Log10 mAb Concentration (nM)
[9] = biological target: T3, mouse CD36 recombinant protein (Sino …); assay: ELISA, plate coated with mouse CD36, OD630nm
Description: as §2

[10] = biological target: T1, human CD36 recombinant protein (Sino …); assay: SPR Biacore T200, antibody captured on anti-mouse IgA, CD36 analyte, 2-state model
Description: as §1

[11] = biological target: T1, human CD36 recombinant protein (Sino …); assay: estimated from ELISA, CD36 coated on plate; human CD36 coated on plate
Description: as §2

[12] = biological target: T3, mouse CD36 recombinant protein (Sino …); assay: ELISA, plate coated with mouse CD36, OD630, panel 'Coating: mouse CD36'
Description: as §2

[13] = biological target: T1, human CD36 recombinant protein (Sino …); assay: SPR Biacore T200, antibody captured on anti-mouse IgA, CD36 analyte 3.3-333 nM, 1-to-1 model
Description: as §1

[14] = biological target: T3, mouse CD36 recombinant protein (Sino …); assay: estimated from ELISA, CD36 coated on plate; mouse CD36 coated on plate
Description: as §2

Row | Binder | Kd [1] [nM] | EC50 (read off the curve) [2] [nM] | EC50 (read off the curve) [3] [nM] | EC50 (read off the curve) [4] [nM] | Kd [5] [nM] | Kd [6] [nM] | koff [6] [s⁻¹] | kon [6] [M⁻¹ s⁻¹] | Kd [7] [nM] | EC50 (read off the curve) [8] [nM] | EC50 (read off the curve) [9] [nM] | Kd [10] [nM] | Kd [11] [nM] | EC50 (read off the curve) [12] [nM] | Kd [13] [nM] | koff [13] [s⁻¹] | kon [13] [M⁻¹ s⁻¹] | Kd [14] [nM]
1 | B1 | 2.78 | ~0.03 | ~0.2 | ~0.08 | 0.1 | 1.74 | 0.000159 | 100000 | 0.04 | ~0.4 | ~0.3 | – | – | – | – | – | – | –
2 | B2 | – | – | – | ~0.08 | – | – | – | – | – | ~0.4 | – | – | – | – | – | – | – | –
3 | B3 | – | ~0.03 | – | – | – | – | – | – | – | – | – | 8.72 | ~0.04 | ~1 | 5.85 | 0.00354 | 632000 | ~0.1

Source: patent publication US20230235073A1 (ONA THERAPEUTICS S L, published 2023)
